Source: paper PMC6494882, “Inhibition of MYC by the SMARCB1 tumor suppressor”

Biological target: MAX:MAX (UniProt P61244 1-160)
Test: EMSA; no SNF5; 15 mM Tris-HCl pH 7.9, 15% glycerol, 100 mM KCl, 0.15 mM EDTA, 0.075% NP-40, 7.5 mM 2-mercaptoethanol, 40 ng poly(dI-dC), 375 ng/ul BSA, 25 fmol probe, 10-15 ul, 30 min, room temperature; SUMO-BAF155(533-580) added to equalize total protein in SNF5 experiments
Details: protein: recombinant; tags: 6xHis; chain copies: 2; label: 3'-biotin

Sequence of MAX:MAX (P61244 whole entry): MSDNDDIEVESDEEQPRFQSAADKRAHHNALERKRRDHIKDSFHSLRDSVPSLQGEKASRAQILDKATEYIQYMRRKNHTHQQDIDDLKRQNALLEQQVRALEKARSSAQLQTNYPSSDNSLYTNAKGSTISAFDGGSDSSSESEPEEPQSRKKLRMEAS

B1: wild-type E-box probe (dsDNA)
DNA 1: GCTCAGGGACCACGTGGTCGGGGATC
DNA 2: GATCCCCGACCACGTGGTCCCTGAGC
Q: Does B1 bind?
A: binds
